Data set [1] concerns the target Cas7d, backbone subunit of type I-D Cascade (Synechocystis). The experiment in a line: cryo-EM structure; type I-D Cascade (co-expressed subunits with crRNA, purified as a complex) bound to a dsDNA target with GTT PAM, 1:2 Cascade:target, 30 °C 30 min; 2.9 Å.
Data set [2] addresses Cas11d, small subunit of type I-D Cascade (Synechocystis). The description is as above.
Data set [3] deals with Type I-D Cascade WT (assay sample) (Synechocystis) (UniProt Q6ZEI7+Q6ZEI6+Q6ZEI5+Q6ZEI7). The experiment in a line: EMSA. Conditions: EMSA: 10 mM HEPES-NaOH pH 7.5, 100 mM KCl, 5% glycerol, 1 mM DTT, 0.01% Triton X-100, 1 µg BSA, 0.1 µg poly(dI.dC) (dsDNA) or 0.26 µg E. coli tRNA (ssRNA) in ….

Results on four substances are retold here after publication PMC9123187.

For the substance “Cas7d, backbone subunit of type I-D Cascade (natural protein)”, the stoichiometry N in data set [1] stood at 7.
In turn, “Cas11d, small subunit of type I-D Cascade (natural protein)” came in with a stoichiometry N in data set [2] of 2.
For “GCAUGACGGAUCGAGGCAUUGAAAGCGACCGCCAGGGGCACAACAAUCAACGUGAUACUA / ACUGAAACGAUUGUUGUGCCCCUGGCGGUCGCUUUCAAUGCCU [PF3167 AAC-PFS ssRNA + crRNA]”, in data set [3], the Kd worked out at 11 nM.
Still for that read-out and setting: as for “GCAUGACGGAUCGAGGCAUUGAAAGCGACCGCCAGGGGCACAACAAUCACGGUGAUACUA / ACUGAAACGAUUGUUGUGCCCCUGGCGGUCGCUUUCAAUGCCU [PF5591 ACG-PFS ssRNA + crRNA]”, the figure is 11 nM.
